Experimental findings from FireProtDB (doi:10.1002/prot.340220405) are described below.

B1: Chemotaxis protein CheY, P0AE67 (parent)
chain: MADKELKFLVVDDFSTMRRIVRNLLKELGFNNVEEAEDGVDALNKLQAGGYGFVISDWNMPNMDGLELLKTIRADGAMSALPVLMVTAEAKKENIIAAAQAGASGYVVKPFTAATLEEKLNKIFEKLGM

The variants in this data set derive from B1. As to conditions: Escherichia coli (strain K12); pH 8; 25 °C; Urea; CD; Na-PIPES 50 mM; reversible: yes; structure 1CEY; whole UniProt chain shown.

For the variant MADKELKFLVVDDFSTMRRIVRNLLKELGFNNVEEAEDGVDALNKLQAGGYGFVISDWNMPNMDGLELLKTIRADGAMSALPVLMVTAEAKKENIIAAGQAGASGYVVKPFTAATLEEKLNKIFEKLGM [A99G], the “ddG of mutation (higher = less stable)” value is 0.5 kcal/mol, the denaturant m value came to 1.58 kcal/mol/M, the “denaturant midpoint (higher = more stable)” value (“denaturant midpoint” below) stood at 3.23 M and the unfolding free energy was determined as 5.1 kcal/mol.
The matching figures for MADKELKFLVVDDNSTMRRIVRNLLKELGFNNVEEAEDGVDGLNKLQAGGYGFVISDWNMPNMDGLELLKTIRADGAMSALPVLMVTAEAKKENIIAAAQAGASGYVVKPFTAATLEEKLNKIFEKLGM [A42G F14N]: -0.6 kcal/mol, 1.73 kcal/mol/M, 3.58 M and 6.2 kcal/mol.
Consider MADKELKFLVVDDFSTMRRIVRNLLKELGFNNVEEAEDGVDALNKLQAGGYGFVISDWNMPNMDGLELLKTIRGDGAMSALPVLMVTAEAKKENIIAAAQAGASGYVVKPFTAATLEEKLNKIFEKLGM [A74G], for which the “ddG of mutation (higher = less stable)” value came out at 0.3 kcal/mol, the denaturant m value was 1.6 kcal/mol/M, the “denaturant midpoint” value came out at 3.32 M and the unfolding free energy was determined as 5.3 kcal/mol.
The matching figures for MADKELKFLVVDDNSTMRRIVRNLLKELGFNNVEEAEGGVDALNKLQAGGYGFVISDWNMPNMDGLELLKTIRADGAMSALPVLMVTAEAKKENIIAAAQAGASGYVVKPFTAATLEEKLNKIFEKLGM [D38G F14N]: -1.9 kcal/mol, 1.81 kcal/mol/M, 4.14 M and 7.5 kcal/mol.
The matching figures for MADKELKFLVVDDNSTMRRIVRNLLKELGFNNVEEAEDGVDALNKLQAGGYGFVISDWNMPNMDGLELLKTIRADAAMSALPVLMVTAEAKKENIIAAAQAGASGYVVKPFTAATLEEKLNKIFEKLGM [G76A F14N]: -3.4 kcal/mol, 1.77 kcal/mol/M, 5.08 M and 9 kcal/mol.
The matching figures for MADKELKFLVVDDNSTMRRIVRNLLKELGFNNVEEAEDGVDALNKLQAGGYGFVISDWNMPNMDGLELLKTIRADGAMSALPVLMVTAEAKKENIIGAAQAGASGYVVKPFTAATLEEKLNKIFEKLGM [A97G F14N]: -1.5 kcal/mol, 1.77 kcal/mol/M, 4 M and 7.1 kcal/mol.
As to MADKELKFLVVDDNSTMRRIVRNLLKELGFNNVEEAEDGVDALNKLQAGGYGFVISDWNMPNMDGLELLKTIRADGAMSALPVLMVTAEAAKENIIAAAQAGASGYVVKPFTAATLEEKLNKIFEKLGM [K91A F14N], the “ddG of mutation (higher = less stable)” value is -3.3 kcal/mol, the denaturant m value worked out at 1.86 kcal/mol/M, the “denaturant midpoint” value was 4.8 M and the unfolding free energy was 8.9 kcal/mol.
The matching figures for MADKELKFLVVDDNSTMRRIVRNLLKELGFNNVEEAEDGVDALNKLQAGGYGFVISDWNMPNMDGLELLKTIRADGAMSALPVLMVTAEAKKENIIAGAQAGASGYVVKPFTAATLEEKLNKIFEKLGM [A98G F14N]: -1.6 kcal/mol, 1.76 kcal/mol/M, 4.09 M and 7.2 kcal/mol.
The matching figures for MADKELKFLVVDDNSTMRRIVRNLLKELGFNNVEEAEDGVDALNKLQAGGYGFVISDWNMPNMDGLELLKTIRADGAMSALPVLMVTAEAKKENIIAAAQAGASGYVVKPFTAATLEEKLNKIFEKLGM [F14N]: -2.9 kcal/mol, 1.8 kcal/mol/M, 4.72 M and 8.5 kcal/mol.
Turning to MADKELKFLVVDDNSTMRRIVRNLLKELGFNNVEEAEDGVDALNKLQAGGYGFVISDWNMPNMGGLELLKTIRADGAMSALPVLMVTAEAKKENIIAAAQAGASGYVVKPFTAATLEEKLNKIFEKLGM [D64G F14N], the “ddG of mutation (higher = less stable)” value was -2.6 kcal/mol, the denaturant m value was found to be 1.72 kcal/mol/M, the “denaturant midpoint” value was 4.77 M and the unfolding free energy came out at 8.2 kcal/mol.
Consider MADKELKFLVVDDNSTMRRIVRNLLKELGFNNVEEAEAGVDALNKLQAGGYGFVISDWNMPNMDGLELLKTIRADGAMSALPVLMVTAEAKKENIIAAAQAGASGYVVKPFTAATLEEKLNKIFEKLGM [D38A F14N], for which the “ddG of mutation (higher = less stable)” value is -1 kcal/mol, the denaturant m value turned out to be 1.87 kcal/mol/M, the “denaturant midpoint” value worked out at 3.58 M and the unfolding free energy turned out to be 6.6 kcal/mol.
The matching figures for MADKELKFLVVDDNSTMRRIVRNLLKELGFNNVEEGEDGVDALNKLQAGGYGFVISDWNMPNMDGLELLKTIRADGAMSALPVLMVTAEAKKENIIAAAQAGASGYVVKPFTAATLEEKLNKIFEKLGM [A36G F14N]: 0.2 kcal/mol, 1.6 kcal/mol/M, 3.41 M and 5.4 kcal/mol.
The matching figures for MADKELKFLVVDDNSTMRRIVRNLLKELGFNNVEEAEDGVDALNKLQAGGYGFVISDWNMPNMDGLELLKTIRADGAMSALPVLMVTAEAKKENIIAAAQAGGSGYVVKPFTAATLEEKLNKIFEKLGM [A103G F14N]: -1.2 kcal/mol, 1.75 kcal/mol/M, 3.89 M and 6.8 kcal/mol.
With MADKELKFLVVDDFSTMRRIVRNLLKELGFNNVEEAEDGVDALNKLQAGGYGFVISDWNMPNMDGLELLKTIRADGAMSGLPVLMVTAEAKKENIIAAAQAGASGYVVKPFTAATLEEKLNKIFEKLGM [A80G], the “ddG of mutation (higher = less stable)” value is -0.6 kcal/mol, the denaturant m value is 1.68 kcal/mol/M, the “denaturant midpoint” value came out at 3.65 M and the unfolding free energy was determined as 6.2 kcal/mol.
The matching figures for MADKELKFLVVDDFSTMRRIVRNLLKELGFNNVEEAEDGVDALNKLQAGGYGFVISDWNMPNMDGLELLKTIRADGGMSALPVLMVTAEAKKENIIAAAQAGASGYVVKPFTAATLEEKLNKIFEKLGM [A77G]: 0.3 kcal/mol, 1.56 kcal/mol/M, 3.32 M and 5.3 kcal/mol.
The matching figures for MADKELKFLVVDDFSTMRRIVRNLLKELGFNNVEEAEDGVDALNKLQAGGYGFVISDWNMPNMDGLELLKTIRADGAMSALPVLMVTAEAKKENIIAAAQAGASGYVVKPFTAGTLEEKLNKIFEKLGM [A114G]: 0.5 kcal/mol, 1.6 kcal/mol/M, 3.2 M and 5.1 kcal/mol.
The matching figures for MADKELKFLVVDDNSTMRRIVRNLLKELGFNNVEEAEDGVDALNKLQAGGYGFVISDWNMPNMAGLELLKTIRADGAMSALPVLMVTAEAKKENIIAAAQAGASGYVVKPFTAATLEEKLNKIFEKLGM [D64A F14N]: -1.7 kcal/mol, 1.69 kcal/mol/M, 4.32 M and 7.3 kcal/mol.
For MADKELKFLVVDDFSTMRRIVRNLLKELGFNNVEEAEDGVDALNKLQAGGYGFVISDWNMPNMDGLELLKTIRADGAMSALPVLMVTGEAKKENIIAAAQAGASGYVVKPFTAATLEEKLNKIFEKLGM [A88G], the “ddG of mutation (higher = less stable)” value is -0.1 kcal/mol, the denaturant m value stood at 1.64 kcal/mol/M, the “denaturant midpoint” value was 3.48 M and the unfolding free energy came out at 5.7 kcal/mol.
Turning to MADKELKFLVVDDNSTMRRIVRNLLKELGFNNVEEAEDGVDALNKLQAGGYGFVISDWNMPNMDGLELLKTIRADGAMSALPVLMVTAEAKKENIIAAAQAGASGYVVKPFGAATLEEKLNKIFEKLGM [T112G F14N], the “ddG of mutation (higher = less stable)” value was -1.9 kcal/mol, the denaturant m value is 1.68 kcal/mol/M, the “denaturant midpoint” value worked out at 4.46 M and the unfolding free energy was found to be 7.5 kcal/mol.
The matching figures for MADKELKFLVVDDNSTMRRIVRNLLKELGFNNVEEAEDGVDALNKLQAGGYGFVISDWNMPNMDGLELLKTIRADGAMSALPVLMVTAEAKKENIIAAAQAGASGYVVKPFAAATLEEKLNKIFEKLGM [T112A F14N]: -1.4 kcal/mol, 1.68 kcal/mol/M, 4.12 M and 7 kcal/mol.
